Results as given in article PMC3399080.

Tests used:
[1] = molecular target: Recombinant human insulin oxidized by metal-catalyzed oxidation (copper(II)/ascorbate) (human); experiment: SEC; insulin oxidized in 50 mM sodium citrate, pH 3.0, 3 h at room temperature; same column and dissociating mobile phase; UV 276 nm; covalent aggregates only
[2] = molecular target: Recombinant human insulin oxidized by metal-catalyzed oxidation (copper(II)/ascorbate) (human); experiment: SEC; insulin oxidized in 250 mM ammonium bicarbonate, pH 8.0, 3 h at room temperature (ammonia competes for Michael addition); same column and dissociating mobile phase; UV 276 nm; covalent aggregates only
[3] = molecular target: Recombinant human insulin oxidized by metal-catalyzed oxidation (copper(II)/ascorbate) (human); experiment: SEC; insulin oxidized in 50 mM sodium citrate, pH 3.0, then exchanged into 50 mM PB, pH 7.4, and left 12 h at room temperature; same column and dissociating mobile phase; UV 276 nm; covalent aggregates only
[4] = molecular target: Recombinant human insulin oxidized by metal-catalyzed oxidation (copper(II)/ascorbate) (human); experiment: SEC; insulin oxidized in 50 mM PB, pH 7.4, 3 h at room temperature; Insulin HMWP column, mobile phase 1 g/L L-arginine in water/acetonitrile/glacial acetic acid 65:20:15, which dissociates non-covalent aggregates; UV 276 nm; covalent dimers and oligomers only

%Dimer (covalent) [1]: 0.8%
%Dimer (covalent) [2]: 3.9%
%Dimer (covalent) [3]: 9.3%
%HMWO (covalent high-molecular-weight oligomers) [3]: 1.9%
%Dimer (covalent) [4]: 18.8%
%HMWO (covalent high-molecular-weight oligomers) [4]: 6.8%
Substance: Recombinant human insulin oxidized by metal-catalyzed oxidation (copper(II)/ascorbate) (natural protein)
